Results: publication PMC7061092 (Physiological Reports, 2020)
Where two headings read alike, the source gives them in different places. No end group written: not given here.

Tests used:
[1] = molecular target: WT hERG (Homo sapiens, UniProt Q12809); conditions: for Isochronal percentage of hERG block (IhERG tail): terfenadine 100 nM, thioridazine 100 nM, dofetilide 10 nM, chloroquine 1 µM, ketoconazole 3 µM, mean ± SEM
Protocol: (§1) For transient transfection experiments, 24 hr after plating cells out, cells were transiently transfected with 0.5 µg of the F656V hERG construct using Lipofectamine^TM LTX (Invitrogen) according to the manufacturer's instructions. […] Cells were plated onto small sterilized glass coverslips 6 hr after transfection and recordings were made after at least 24 hr incubation at 37°C. Successfully transfected cells were identified using Dynabeads® (Invitrogen). All experimental data for the F656V hERG mutant channel were obtained from cells from a minimum of two transfections.
(§2) Recordings of hERG current (IhERG) and were made using an Axopatch 200 amplifier (Axon Instruments) and a CV201 head‐stage. Between 70%–80% of pipette series resistance was compensated. Voltage‐clamp commands were generated using “WinWCP” (John Dempster, Strathclyde University).
The A(x)1 and B(x)1 values were derived from Equation 1. […] Time courses of IhERG inhibition were fitted using either a single (Equation 3) exponential decay fit of the forms:(3) Y=Y^0-Plateau∗exp-K∗X+Plateau.
IhERG “tail” magnitude was measured relative to instantaneous current at −40 mV elicited by the brief (50 ms) depolarizing step that preceded the voltage command to +20 mV in the absence and presence of the drug. […] We also assessed the effects of drug block on IhERG time constants of deactivation. Tail currents on repolarization to −40mV were fitted using a biexponential to derive the fast τ1 and slow τ2 time constants of deactivation in control and after drug application.

[2] = molecular target: F656V hERG (Homo sapiens, UniProt Q12809, F656V); test: Whole-cell patch-clamp recording of IhERG in HEK 293 cells transiently transfected with F656V hERG at 37°C
Protocol: The F656V hERG mutation (Lees‐Miller, Duan, Teng, & Duff, 2000) was generated using the QuickChange® site‐directed mutagenesis kit (Stratagene). In brief, a pair of complementary oligonucleotide primers containing the mutation (forward primer sequence 5′[…]3′ and reverse primer sequence 5′ […]3′, synthesized by Sigma‐Genosys) was used in a PCR reaction (95°C for 1 min, 60°C for 1 min, 68°C for 16 min for 18 cycles) with hERG in a modified pcDNA3.0 vector as a DNA template. A DpnI digest of the PCR mix was then performed for 1 hr at 37°C. Competent DH5α Escherichia coli (Invitrogen) were transformed using standard procedures. The mutation was confirmed by sequencing of the entire open reading frame (Eurofins MWG Operon).
as §1, §2

[3] = 30 nM BeKm-1, absence of erythromycin
[4] = 30 nM BeKm-1 in the maintained presence of 3 µM erythromycin

| Molecule | Isochronal percentage of hERG block (IhERG tail) ([1]; 0 µM erythromycin) | Isochronal percentage of hERG block (IhERG tail) ([1]; preincubation with 3 µM erythromycin) | Isochronal percentage of hERG block (IhERG tail) ([1]; preincubation with 30 µM erythromycin) | nature of interaction with erythromycin pretreatment on hERG block ([1]; pretreatment with low concentrations of erythromycin (≤30 µM)) | reduction of F656V IhERG [2, 3] [%] | thalf of F656V IhERG inhibition [2, 3] [s] | block of F656V IhERG at steady state [2, 4] [%] | thalf of F656V IhERG inhibition [2, 4] [s] | % of IhERG block at steady state [1] [%] | WT IhERG tail block [1] [%] | reduction of WT IhERG tail [1] [%] | time course of WT hERG block [1] |
| --- | --- | --- | --- | --- | --- | --- | --- | --- | --- | --- | --- | --- |
| CCN(CC)CCCC(C)Nc1ccnc2cc(Cl)ccc12 (stereo not drawn) [Chloroquine, chloroquine] | 48.4 ± 3.9 (n = 5) % | 70.8 ± 5.3 (n = 5) % | 77.8 ± 0.6 (n = 4) % | strong synergism | – | – | – | – | – | – | – | – |
| BeKm‐1: peptide (scorpion) toxin, in house Fmoc-synthesized, externally acting hERG blocker (RPTDIKCSESYQCFPVCKSRFGKTNGRCVNGFCDCF; ends and bridges not checked; cysteine pairing not given here; UniProt Q9BKB7 22-57, looked up) | – | – | – | – | 74.5 ± 1.6 | 14.2 ± 3.3 | 69.4 ± 5.1 | 20.7 ± 4.6 | 51.4 ± 4.6 | 46.8 ± 5.0 | 52.2 ± 3.4 | delayed |
